Assay results as given in paper PMC4523182, “Biochemical Characterization of a Mycobacteriophage Derived DnaB Ortholog Reveals New Insight into the Evolutionary Origin of DnaB Helicases”.
One block for each molecule: values may come before it.

How the values were obtained:
[1] = biological target: Wildcat Gp80 (mycobacteriophage Wildcat); assay: SEC; analytical Superose 6 10/300 GL, FPLC, 0.4 ml/min, 40 mM Tris-HCl pH 7.5, 50 mM KCl, 2 mM DTT; Mw from a standard curve (thyroglobulin, beta-amylase, BSA, ovalbumin, cytochrome C)
[2] = biological target: Wildcat Gp80 (mycobacteriophage Wildcat); assay: dynamic light scattering; higher protein concentrations (1 uM unless otherwise stated), 50 mM Tris-HCl pH 8.0, 50 mM KCl, 2 mM DTT, 1 mM MgCl2, 25°C; weight average hydrodynamic radius; no cofactor; oligomer also kept with 4 mM AMP-PNP and with 4 mM ATP plus 24 uM 41 mer ssDNA
[3] = biological target: T1, WCGp80 (Wildcat Gp80, DnaB-type helicase) (Mycobacteriophage Wildcat, UniProt Q19XY0 1-441); assay: tryptophan fluorescence quenching; 40 nM protein; S6 Fig legend gives 56.44 nM; Binding buffer, pH and temperature not given in the material; Trp quenching ex 280/em 340 nm (helicase assay buffer E: 50 mM Tris-HCl pH 8.0, 50 mM KCl, 2 mM DTT, 0.25 mg/ml BSA, 4 mM MgCl2, 4 mM ATP, 4% sucrose, 37 C); conditions: protein: recombinant; tags: N-terminal His6 (pQE30); chain copies: 6; single strand
T1 sequence: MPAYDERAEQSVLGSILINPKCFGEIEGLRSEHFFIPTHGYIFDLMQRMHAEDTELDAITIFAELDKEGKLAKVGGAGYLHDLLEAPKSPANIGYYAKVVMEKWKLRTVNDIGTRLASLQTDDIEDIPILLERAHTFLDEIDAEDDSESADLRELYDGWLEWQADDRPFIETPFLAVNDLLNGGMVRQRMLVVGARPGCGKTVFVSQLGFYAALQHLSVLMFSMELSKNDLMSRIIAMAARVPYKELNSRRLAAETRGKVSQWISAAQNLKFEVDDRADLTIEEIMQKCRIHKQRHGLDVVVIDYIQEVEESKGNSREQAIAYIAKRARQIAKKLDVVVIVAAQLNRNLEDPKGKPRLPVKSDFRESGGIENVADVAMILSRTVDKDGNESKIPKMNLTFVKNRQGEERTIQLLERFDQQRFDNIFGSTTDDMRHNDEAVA

[4] = biological target: T1, WCGp80 (Wildcat Gp80, DnaB-type …); assay: fluorescence polarization; one-site non-cooperative fit; Binding buffer, pH and temperature not given in the material; Trp quenching ex 280/em 340 nm (helicase assay buffer E: 50 mM Tris-HCl pH 8.0, 50 mM KCl, 2 mM DTT, 0.25 mg/ml BSA, 4 mM MgCl2, 4 mM ATP, 4% sucrose, 37 C); conditions: protein: recombinant; tags: N-terminal His6 (pQE30); chain copies: 6; label: 5' 6-FAM on oligo 2; fork 20 bp stem; 40 nt 5' tail on oligo1 and 40 nt 3' tail on oligo2
[5] = biological target: T1, WCGp80 (Wildcat Gp80, DnaB-type …); assay: tryptophan fluorescence quenching; 40 nM protein; S6 Fig legend gives 152 nM; Binding buffer, pH and temperature not given in the material; Trp quenching ex 280/em 340 nm (helicase assay buffer E: 50 mM Tris-HCl pH 8.0, 50 mM KCl, 2 mM DTT, 0.25 mg/ml BSA, 4 mM MgCl2, 4 mM ATP, 4% sucrose, 37 C); conditions: protein: recombinant; tags: N-terminal His6 (pQE30); chain copies: 6; single strand

stoichiometry N [1]: 6
stoichiometry N [2]: 6
Molecule: Wildcat Gp80 (enzyme)

Molecule: TCGAGCTCGGTACCCGGGGATCCTCTAGAGTCGACCTGCAGG (ssDNA) [41-mer]
Kd [3]: 58 nM

B1: fork substrate (oligo1/oligo2) (mixed)
DNA 1: GCCCTGATCACGGTACTCGGTTTTTTTTTTTTTTTTTTTTGGCTCCTCTAGACTCGACCG
DNA 2: CGGTCGAGTCTAGAGGAGCCTTTTTTTTTTTTTTTTTTTTTTTTTTTTTTTTTTTTTTTT
Kd [4]: 9.5 nM

B2: 60-mer (oligo2) (ssDNA)
DNA: B1 DNA 2
Kd [5]: 164 nM
